According to IntAct's records for PubMed 22244764:

B1: Mortality factor 4-like protein 1 (Homo sapiens), Q9UBU8-2 (parent)
chain: MAPKQDPKPKFQEGERVLCFHGPLLYEAKCVKVAIKDKQVKYFIHYSGWNKNWDEWVPESRVLKYVDTNLQKQRELQKANQEQYAEGKMRGAAPGKKTSGLQQKNVEVKTKKNKQKTPGNGDGGSTSETPQPPRKKRARVDPTVENEETFMNRVEVKVKIPEELKPWLVDDWDLITRQKQLFYLPAKKNVDSILEDYANYKKSRGNTDNKEYAVNEVVAGIKEYFNVMLGTQLLYKFERPQYAEILADHPDAPMSQVYGAPHLLRLFVRIGAMLAYTPLDEKSLALLLNYLHDFLKYLAKNSATLFSASDYEVAPPEYHRKAV
B2: PHD finger protein 12 (Homo sapiens), Q96QT6 (parent)
chain: MWEKMETKTIVYDLDTSGGLMEQIQALLAPPKTDEAEKRSRKPEKEPRRSGRATNHDSCDSCKEGGDLLCCDHCPAAFHLQCCNPPLSEEMLPPGEWMCHRCTVRRKKREQKKELGHVNGLVDKSGKRTTSPSSDTDLLDRSASKTELKAIAHARILERRASRPGTPTSSASTETPTSEQNDVDEDIIDVDEEPVAAEPDYVQPQLRRPFELLIAAAMERNPTQFQLPNELTCTTALPGSSKRRRKEETTGKNVKKTQHELDHNGLVPLPVKVCFTCNRSCRVAPLIQCDYCPLLFHMDCLEPPLTAMPLGRWMCPNHIEHVVLNQKNMTLSNRCQVFDRFQDTVSQHVVKVDFLNRIHKKHPPNRRVLQSVKRRSLKVPDAIKSQYQFPPPLIAPAAIRDGELICNGIPEESQMHLLNSEHLATQAEQQEWLCSVVALQCSILKHLSAKQMPSHWDSEQTEKADIKPVIVTDSSVTTSLQTADKTPTPSHYPLSCPSGISTQNSLSCSPPHQSPALEDIGCSSCAEKSKKTPCGTANGPVNTEVKANGPHLYSSPTDSTDPRRLPGANTPLPGLSHRQGWPRPLTPPAAGGLQNHTVGIIVKTENATGPSSCPQRSLVPVPSLPPSIPSSCASIENTSTLQRKTVQSQIGPPLTDSRPLGSPPNATRVLTPPQAAGDGILATTANQRFSSPAPSSDGKVSPGTLSIGSALTVPSFPANSTAMVDLTNSLRAFMDVNGEIEINMLDEKLIKFLALQRIHQLFPSRVQPSPGSVGTHQLASGGHHIEVQRKEVQARAVFYPLLGLGGAVNMCYRTLYIGTGADMDVCLTNYGHCNYVSGKHACIFYDENTKHYELLNYSEHGTTVDNVLYSCDFSEKTPPTPPSSIVAKVQSVIRRRRHQKQDEEPSEEAAMMSSQAQGPQRRPCNCKASSSSLIGGSGAGWEGTALLHHGSYIKLGCLQFVFSITEFATKQPKGDASLLQDGVLAEKLSLKPHQGPVLRSNSVP
B3: PHD finger protein 12 (Mus musculus), Q5SPL2 (parent)
chain: MWEKMETKTIVYDLDTSGGLMEQIQALLAPPKTDEAEKRSRKPEKESRRSGRATNHDSCDSCKEGGDLLCCDHCPAAFHLQCCNPPLSEEMLPPGEWMCHRCTVRRKKREQKKELGHVNGLVDKSSKRTTSPSSDTDLLDRPASKTELKAIAHARILERRASRPGTPTSNASTETPTSEHNDVDEDIVDVDEEPVAAEPDYVQPQLRRPFELLIAAAMERNPTQFQLPNELTCTTALPGSSKRRRKEETTGKNVKRTQHELDHNGLVPLPVKVCFTCNRSCRVAPLIQCDYCPLLFHMDCLEPPLTAMPLGRWMCPNHIEHVVLNQKNLTLSNRCQVFDRFQDTISQHVVKVDFLNRIHKKHPPNRRVLQSVKRRSLKVPDAIKSQYQFPPPLIAPAAIRDGELICSGVPEESQTHLLNSEHLATQAEQQEWLCSVVALQCSILKHLSAKQMPSPWDSEQTEKADIKPVIVTDSSITTSLQTADKAPLPSHYPLSCPSAVSTQNSLGCSPPHQPPTLEDISCSSCVEKSKKAPCGTANGPVNTEIKANGPHLYSSPTDSTDPRRLPGANTPLPGLTHRQGWPRPLTPPSAGGLQNHVGIIVKTENATGPSSCPQRSLVPVPSLPPSIPSSCASIENTSTLHRKTVQSQIGPSSTESRPLGSPPNATRVLTPPQAAGDSILATGANQRFCSPAPSSDGKVSPGTLSIGSALTVPSFPANSTAMVDLTNSLRAFMDVNGEIEINMLDEKLIKFLALQRVHQLFPSRVQASPGNVGTHPLASGGHHPEVQRKEVQARAVFCPLLGLGGAVNMCYRTLYIGTGADMDVCLTNYGHCNYVSGKHACIFYDENTKHYELLNYSEHGTTVDNVLYSCDFSEKTPPTPPSSIVAKVQSVIRRRRHQKQDEEPSEEAAMMSSQAQGPQRRPCNCKASSSSLIGGSGAGWEGTALLHHGSYIKLGCLQFVFSITEFATKQPKGDASLLQDGVLAEKLSLKPHQGPVLRSNSVP

Variants of: B1
Conditions: with phf12_mouse Phf12, Q5SPL2

Variant | effect of a mutation on the interaction
L168A | decreasing interaction
V227A | decreasing interaction
L287A | decreasing interaction

Variants of: B1
Conditions: with phf12_human PHF12, Q96QT6

Variant | effect of a mutation on the interaction
V227A | decreasing interaction
L287A | decreasing interaction
W172A | decreasing interaction
M228A | decreasing interaction
Y235A | disrupting interaction
V268A | decreasing interaction

Variants of: B2
Conditions: with MORF4L1, Q9UBU8-2

Variant | effect of a mutation on the interaction
F210A | decreasing interaction
L213A | decreasing interaction
N221E | decreasing interaction
F225A | decreasing interaction
L227A | decreasing interaction
P228A | decreasing interaction

Variants of: B3
Conditions: with MORF4L1, Q9UBU8-2

Variant | effect of a mutation on the interaction
F210A | disrupting interaction
P228A | decreasing interaction
L227A | disrupting interaction
F225A | disrupting interaction strength
L213A | disrupting interaction
